Assay results as given in US20240076381A1.

Molecular target: FcRn-µ2m fusion protein (human β2m fused by (Gly4Ser)3 to the extracellular domain of human FcRn, His-tagged) (human) (UniProt P61769)
Assay: ELISA on coated FcRn-β2m fusion, pH 6; KD estimated by saturation binding fit

Chain of UniProt P61769 (P61769 other isoform, or with tags, fused parts or gaps limits assumed): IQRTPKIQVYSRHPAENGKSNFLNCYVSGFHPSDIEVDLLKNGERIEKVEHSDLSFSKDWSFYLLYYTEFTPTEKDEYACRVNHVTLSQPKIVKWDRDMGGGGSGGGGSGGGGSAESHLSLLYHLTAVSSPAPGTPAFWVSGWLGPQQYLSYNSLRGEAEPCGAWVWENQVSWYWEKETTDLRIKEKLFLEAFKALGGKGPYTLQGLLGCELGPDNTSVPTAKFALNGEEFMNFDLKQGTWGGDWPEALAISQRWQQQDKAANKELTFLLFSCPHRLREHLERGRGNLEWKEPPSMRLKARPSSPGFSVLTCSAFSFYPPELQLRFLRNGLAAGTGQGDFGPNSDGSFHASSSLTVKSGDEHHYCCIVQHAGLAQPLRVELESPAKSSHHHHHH

Trastuzumab IgG (antibody)
Kd: 0.9 µM
